Here are results for 1 substance from patent publication US20250277023A1.

The target in this test is CHO-PD-L1 (UniProt Q9NZQ7). The test can be described thus: FACS binding; Fig. 23.
Sequence of CHO-PD-L1 (Q9NZQ7 19-290): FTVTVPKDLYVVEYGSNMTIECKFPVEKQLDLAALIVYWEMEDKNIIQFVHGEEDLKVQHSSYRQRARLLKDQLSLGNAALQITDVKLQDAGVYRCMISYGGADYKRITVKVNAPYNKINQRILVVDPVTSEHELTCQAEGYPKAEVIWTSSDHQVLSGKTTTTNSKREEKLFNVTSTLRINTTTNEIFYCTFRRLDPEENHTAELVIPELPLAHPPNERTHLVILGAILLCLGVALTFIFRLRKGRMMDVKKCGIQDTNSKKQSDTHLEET

The EC50 is the concentration giving half of the maximal effect. Lower therefore signals greater potency. Substance R0514(avelumab-mIgG2a) yielded an EC50 of 0.494 nM.
